Here are results for 1 substance from publication PMC5404189.

Some results are limits rather than exact numbers.

The assay has as its target extracellular fibrinogen binding protein (Staphylococcus aureus) (UniProt A6QG59). The experiment in a line: ELISA.
Sequence of UniProt A6QG59 (A6QG59 30-165): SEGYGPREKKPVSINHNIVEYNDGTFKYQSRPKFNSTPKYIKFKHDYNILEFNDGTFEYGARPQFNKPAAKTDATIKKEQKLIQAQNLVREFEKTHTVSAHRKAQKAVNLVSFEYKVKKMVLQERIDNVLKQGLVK

For the substance human complement C3 (natural protein), the reBC at 10% plasma is greater than 80%.
